In the assay the target is AmHv1, Hv1-type proton channel of Acropora millepora, tagged with fluorescent proteins (Acropora millepora). Kind of assay: FRET or BRET; spectral FRET (sensitized emission of the acceptor) in HEK293 cells co-expressing mCerulean-AmHv1 (donor) and mCitrine-AmHv1 (acceptor); apparent FRET efficiency against Id/Ia from 134 cells, fitted to a model of random assembly into a dimer. In general terms: Bioluminescence resonance energy transfer reports proximity on the nanometre scale.

Broadly, the stoichiometry N is a count of units in the complex or per binding partner. Regarding “AmHv1, Hv1-type proton channel of Acropora millepora, tagged with fluorescent proteins (natural protein)”, the stoichiometry N amounted to 2.

(Values after paper PMC8346283.)
